Experimental data: article PMC6727741

Target: IFT dynein heavy chain (D1bHC) (Chlamydomonas reinhardtii (endogenous in cc4533 and wdr92-1 cells)) (UniProt Q9SMH5)
Assay: SEC

## IFT dynein heavy chain (D1bHC), Q9SMH5 1-4334
  stoichiometry N: 2
